The text below walks through data of patent US20240116985A1 (published 2024).

By EC50 is commonly meant the midpoint of the concentration-response curve.

Experiment [1] has as its target T1, full-length beta-Catenin (Uniprot ID P35222) (Homo sapiens (Human), UniProt P35222 1-781).
T1 construct: Used full-length in the FP and AlphaScreen assays; also called B-Catenin; bCat
T1 sequence: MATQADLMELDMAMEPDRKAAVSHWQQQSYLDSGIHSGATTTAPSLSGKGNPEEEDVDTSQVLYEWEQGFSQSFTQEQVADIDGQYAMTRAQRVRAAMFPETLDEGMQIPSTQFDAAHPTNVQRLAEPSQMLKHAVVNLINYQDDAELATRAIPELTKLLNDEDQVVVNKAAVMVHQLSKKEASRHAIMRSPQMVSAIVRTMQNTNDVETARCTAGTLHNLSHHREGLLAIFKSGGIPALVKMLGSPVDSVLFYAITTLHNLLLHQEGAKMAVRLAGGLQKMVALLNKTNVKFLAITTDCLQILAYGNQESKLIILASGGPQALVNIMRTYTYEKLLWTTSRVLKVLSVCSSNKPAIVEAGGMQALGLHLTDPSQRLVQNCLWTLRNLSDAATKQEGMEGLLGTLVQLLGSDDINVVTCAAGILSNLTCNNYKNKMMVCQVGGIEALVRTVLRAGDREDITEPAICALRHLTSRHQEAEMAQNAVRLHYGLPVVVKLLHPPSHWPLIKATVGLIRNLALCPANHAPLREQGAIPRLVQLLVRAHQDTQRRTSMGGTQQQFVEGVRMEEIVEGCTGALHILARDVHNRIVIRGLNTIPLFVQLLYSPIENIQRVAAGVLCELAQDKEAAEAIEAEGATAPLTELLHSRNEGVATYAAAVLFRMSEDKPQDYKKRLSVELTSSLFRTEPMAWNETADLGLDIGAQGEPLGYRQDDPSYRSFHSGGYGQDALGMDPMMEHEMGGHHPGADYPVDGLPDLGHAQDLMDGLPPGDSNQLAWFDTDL
Description: fluorescence polarization competition; full-length beta-catenin + 5FAM-TCF4(10-53) probe as competitor; peptide titrated. On the procedure:
The plate was incubated protected from light for 60 minutes at 20° C. prior to read. Reads were performed on a CLARIOstar plate reader (BMG Labtech) in duplicate, and data were fitted to a 1:1 binding model with hill slope using an in-house script. All provided concentrations are final concentrations.
Background: In fluorescence polarisation assays a small probe gives low polarisation when free and higher when bound to something large.

Experiment [2] has as its target T1, full-length beta-Catenin (Uniprot ID …). The experiment is described as follows: AlphaScreen (nickel chelate) competition; full-length beta-catenin + biotin-TCF4(10-53) probe as competitor; peptide titrated. On the procedure: Equal volume of the titrated peptide was added to the plate and incubated for 15 minutes at 20° C. Then 4 uL of donor and 4 uL acceptor beads at 10 ug/mL were added to the plate, for a 16 uL reaction pool and protected from light for 60 minutes at 20° C. prior to read. Reads were performed on a CLARIOstar plate reader (BMG Labtech) in duplicate, and data were fitted to a 1:1 binding model with hill slope using an in-house script. All provided concentrations are final concentrations.
For orientation: In Alpha technology, singlet oxygen from a donor bead excites a nearby acceptor bead.

Starred links: 1 amine or outer side, 2 acyl side, 3 side chain; linkers in the order of their positions; H or OH if unused. Positions of bridges follow the written chain, without caps; N, C: chain ends. Non-standard residues stand in square brackets, D forms with d. Primed or numbered codes have the meaning given here. B5(4) = 2,2-bis(4-pentenyl)glycine = 2-amino-2-(pent-4-en-1-yl)hept-6-enoic acid (stitching residue), C=CCCCC(CCCC=C)(N[*:1])C(=O)[*:2]; B5(5) = 2,2-bis(4-pentenyl)glycine, 2-amino-2-(pent-4-en-1-yl)hept-6-enoic acid (stitching residue), C=CCCCC(CCCC=C)(N[*:1])C(=O)[*:2]; SeN = (S)-5-(((allyloxy)carbonyl)(methyl)amino)-2-amino-2-methylpentanoic acid, C=CCOC(=O)N(C)CCC[C@](C)(N[*:1])C(=O)[*:2]; B5(19) = 2-amino-2-(pent-4-en-1-yl)hept-6-enoic acid (bis(4-pentenyl)glycine), C=CCCCC(CCCC=C)(N[*:1])C(=O)[*:2]; B5 = 2-amino-2-(pent-4-en-1-yl)hept-6-enoic acid, C=CCCCC(CCCC=C)(N[*:1])C(=O)[*:2]; Phe(3,4-F2) = N[C@@H](Cc1ccc(F)c(F)c1)C(=O)O; Phe(3-Me) = Cc1cccc(C[C@H](N)C(=O)O)c1; 2Nal = N[C@@H](Cc1ccc2ccccc2c1)C(=O)O; αAllylPro = C=CC[C@@]1(C(=O)O)CCCN1; S8 = C=CCCCCCC[C@](C)(N)C(=O)O

B1: I-179 (peptide)
peptide: XDAXDEAAFQXFWH
modifications: not fully specified; As printed: Ac-PL3-Asp-Ala-B5-Asp-Glu-Ala-Ala-Phe-Gln-S8-Phe-Trp-His-NH2. N-terminal Ac; C-terminal amide; PL3 (1), B5 (4), S8 (11) stapled by olefin metathesis (PL3-B5 and B5-S8)
notes: Stapled peptide composition
For B1, the results for the EC50 in experiment [1] and in experiment [2] were 1630 nM and 152 nM, respectively.

B2: I-187 (peptide)
peptide: XDAXDEAAFAXFWA
modifications: not fully specified; As printed: Ac-PL3-Asp-Ala-B5-Asp-Glu-Ala-Ala-Phe-Ala-S8-Phe-Trp-Ala-NH2. N-terminal Ac; C-terminal amide; PL3 (1), B5 (4), S8 (11) stapled by olefin metathesis (PL3-B5 and B5-S8)
notes: Stapled peptide composition; this is the later-eluting isomer composition
With B2, the EC50 is 3320 nM in experiment [1] and 204 nM in experiment [2].
On the same counts, the results for Ac-[αAllylPro]DA[B5(19)]D[dE]AAFV[S8]FWQ-NH2 (staple 1-4, 4-11, Stapled peptide composition) [I-182] are 2800 nM and 750 nM.
On the same counts, the results for Ac-[αAllylPro]DA[B5]NEAAFV[S8]FWQ-NH2 (staple 1-4, 4-11, Stapled peptide composition) [I-198] are 5000 nM and 538 nM.

B3: I-178 (peptide)
peptide: XDAXDEAAFQXFWH
modifications: not fully specified; As printed: Ac-PL3-Asp-Ala-B5-Asp-Glu-Ala-Ala-Phe-Gln-S8-Phe-Trp-His-NH2. N-terminal Ac; C-terminal amide; PL3 (1), B5 (4), S8 (11) stapled by olefin metathesis (PL3-B5 and B5-S8)
notes: Stapled peptide composition
Turning to B3, the EC50 came out at 1630 nM in experiment [1] and 152 nM in experiment [2].
The matching figures for Ac-[αAllylPro]DA[B5(4)]DEAA[Phe(3,4-F2)]V[S8]F[2Nal]Q-NH2 (staple 1-4, 4-11, Stapled peptide composition) [I-184]: 3110 nM and 628 nM.

B4: I-189 (peptide)
peptide: Ac-[αAllylPro]DI[B5(5)]DDAAFQ[SeN]FWH-NH2
modifications: staple 1-4, 4-11; not fully specified; printed as Ac-PL3-Asp-Ile-B5-Asp-Asp-Ala-Ala-Phe-Gln-SeN-Phe-Trp-His-NH2
notes: Stapled peptide composition
Turning to B4, the concentration for a half-maximal effect (EC50) came out at 1600 nM in experiment [1] and 156 nM in experiment [2].

B5: I-190 (peptide)
peptide: Ac-[αAllylPro]DI[B5(5)]DDAAFQ[SeN]FWH-NH2
modifications: staple 1-4, 4-11; not fully specified; printed as Ac-PL3-Asp-Ile-B5-Asp-Asp-Ala-Ala-Phe-Gln-SeN-Phe-Trp-His-NH2
notes: Stapled peptide composition
In the case of B5, the concentration giving a half-maximal response (EC50) was 696 nM in experiment [1] and 94 nM in experiment [2].
For Ac-[αAllylPro]DI[B5(5)]DEAAFV[S8]FWH-NH2 (staple 1-4, 4-11, Stapled peptide composition) [I-177], the 50% effective concentration (EC50) in experiment [1] is 1990 nM; in experiment [2], 549 nM.

B6: I-186 (peptide)
peptide: XDAXDEAAFAXFWA
modifications: not fully specified; As printed: Ac-PL3-Asp-Ala-B5-Asp-Glu-Ala-Ala-Phe-Ala-S8-Phe-Trp-Ala-NH2. N-terminal Ac; C-terminal amide; PL3 (1), B5 (4), S8 (11) stapled by olefin metathesis (PL3-B5 and B5-S8)
notes: Stapled peptide composition; this is the earlier-eluting isomer composition
Regarding B6, the EC50 in experiment [1] came out at 5000 nM; in experiment [2], 518 nM.

B7: I-188 (peptide)
peptide: Ac-[αAllylPro]DI[B5(5)]DDAAFQ[SeN]FWH-NH2
modifications: staple 1-4, 4-11; not fully specified; printed as Ac-PL3-Asp-Ile-B5-Asp-Asp-Ala-Ala-Phe-Gln-SeN-Phe-Trp-His-NH2
notes: Stapled peptide composition
On to B7, for which the EC50 in experiment [1] worked out at 1600 nM; in experiment [2] it was 156 nM.
Ac-[αAllylPro]DA[B5(4)]DEAA[Phe(3-Me)]V[S8]FWQ-NH2 (staple 1-4, 4-11, Stapled peptide composition) [I-207]: the concentration giving a half-maximal response (EC50) in experiment [1] is 1740 nM; in experiment [2], 143 nM.

B8: I-181 (peptide)
peptide: XDIXDEAAFQXFWQ
modifications: not fully specified; As printed: Ac-PL3-Asp-Ile-B5-Asp-Glu-Ala-Ala-Phe-Gln-S8-Phe-Trp-Gln-NH2. N-terminal Ac; C-terminal amide; PL3 (1), B5 (4), S8 (11) stapled by olefin metathesis (PL3-B5 and B5-S8)
notes: as for B2
On to B8, for which the EC50 in experiment [1] is 310 nM; in experiment [2], 51 nM.

B9: I-180 (peptide)
peptide: XDIXDEAAFQXFWQ
modifications: not fully specified; As printed: Ac-PL3-Asp-Ile-B5-Asp-Glu-Ala-Ala-Phe-Gln-S8-Phe-Trp-Gln-NH2. N-terminal Ac; C-terminal amide; PL3 (1), B5 (4), S8 (11) stapled by olefin metathesis (PL3-B5 and B5-S8)
notes: as for B6
In the case of B9, the EC50 in experiment [1] was 561 nM; in experiment [2], 88 nM.
On the same counts, the results for Ac-[αAllylPro]DI[B5(19)]DEAAFQ[S8]FWA-NH2 (staple 1-4, 4-11, Stapled peptide composition) [I-194] are 1010 nM and 105 nM.
On the same counts, the results for Ac-[αAllylPro]DA[B5(4)]DEAA[Phe(3-Me)]V[S8]FWQ-NH2 (staple 1-4, 4-11, Stapled peptide composition) [I-208] are 1740 nM and 143 nM.
